Results on six molecules are retold here after US20260242419A1, “A CYCLIC PEPTIDE FOR TRAPPING INTERLEUKIN-1 BETA” (Merck Sharp & Dohme LLC, priority 2023, published 2026).

Starred links: 1 amine or outer side, 2 acyl side, 3 side chain; linkers in the order of their positions; H or OH if unused. Non-standard residues stand in square brackets, D forms with d. SbOHPhe4CONH2 = (2S,3S)-2-amino-3-(4-carbamoylphenyl)-3-hydroxypropanoic acid, NC(=O)c1ccc([C@H](O[*:3])[C@H](N[*:1])C(=O)[*:2])cc1; TyrEtNAc = (2S)-3-[4-(2-acetamidoethoxy)phenyl]-2-amino-propanoic acid, CC(=O)NCCOc1ccc(C[C@H](N[*:1])C(=O)[*:2])cc1; alThrOEt = O-ethyl-L-allothreonine, CCO[C@@H](C)[C@H](N[*:1])C(=O)[*:2]; ThrOEt = O-ethyl-L-threonine, CCO[C@H](C)[C@H](N[*:1])C(=O)[*:2]; dPro(4R-(4-pyridylmethyl)) = O=C(O)[C@H]1C[C@@H](Cc2ccncc2)CN1; Trp(βS-Me,4-F) = C[C@@H](c1c[nH]c2cccc(F)c12)[C@H](N)C(=O)O; Bip(4'-CONH2) = NC(=O)c1ccc(-c2ccc(C[C@H](N)C(=O)O)cc2)cc1; dPro(3S-(4-F-Bn)) = O=C(O)[C@@H]1NCC[C@@H]1Cc1ccc(F)cc1; Ala(pyrimidin-5-yl) = N[C@@H](Cc1cncnc1)C(=O)O; Phe(4-CONH2) = NC(=O)c1ccc(C[C@H](N)C(=O)O)cc1; Phe(4-COOH) = N[C@@H](Cc1ccc(C(=O)O)cc1)C(=O)O; Pro(cis-4-F) = O=C(O)[C@@H]1C[C@H](F)CN1; d(αMeD) = C[C@@](N)(CC(=O)O)C(=O)O; 4Pal = N[C@@H](Cc1ccncc1)C(=O)O; NMeDab = CN[C@@H](CCN)C(=O)O; Dab = NCC[C@H](N)C(=O)O; Aib = CC(C)(N)C(=O)O

This assay deals with Recombinant human IL-1β (BioLegend 579404) (human, UniProt P01584 117-269). Briefly: cell-based or functional assay.

Take cyclo([TyrEtNAc][4Pal][Phe(4-CONH2)]G[Pro(cis-4-F)][Trp(βS-Me,4-F)][Aib]SW[Aib][Ala(pyrimidin-5-yl)]Q[Dab]G[dPro(4R-(4-pyridylmethyl))]) [SEQ ID NO 384]: the “MRC5 IC50” value amounted to 0.086 nM.

B1: SEQ ID NO 382 (peptide)
peptide: cyclo([TyrEtNAc][4Pal][Phe(4-CONH2)]G[Pro(cis-4-F)][Trp(βS-Me,4-F)][Aib]SW[Aib][ThrOEt]Q[NMeDab]G[dPro(4R-(4-pyridylmethyl))])
SMILES: CCO[C@H](C)[C@@H]1NC(=O)C(C)(C)NC(=O)[C@H](Cc2c[nH]c3ccccc23)NC(=O)[C@H](CO)NC(=O)C(C)(C)NC(=O)[C@H]([C@@H](C)c2c[nH]c3cccc(F)c23)NC(=O)[C@@H]2C[C@H](F)CN2C(=O)CNC(=O)[C@H](Cc2ccc(C(N)=O)cc2)NC(=O)[C@H](Cc2ccncc2)NC(=O)[C@H](Cc2ccc(OCCNC(C)=O)cc2)NC(=O)[C@H]2C[C@@H](Cc3ccncc3)CN2C(=O)CNC(=O)[C@H](CCN)N(C)C(=O)[C@H](CCC(N)=O)NC1=O
For B1, the “MRC5 IC50” value was 0.048 nM.

B2: SEQ ID NO 379 (peptide)
peptide: cyclo([Bip(4'-CONH2)][4Pal][Phe(4-COOH)]G[Pro(cis-4-F)][Trp(βS-Me,4-F)][Aib]SW[d(αMeD)][Ala(pyrimidin-5-yl)]Q[Dab]G[dPro(3S-(4-F-Bn))])
SMILES: C[C@@H](c1c[nH]c2cccc(F)c12)[C@@H]1NC(=O)[C@@H]2C[C@H](F)CN2C(=O)CNC(=O)[C@H](Cc2ccc(C(=O)O)cc2)NC(=O)[C@H](Cc2ccncc2)NC(=O)[C@H](Cc2ccc(-c3ccc(C(N)=O)cc3)cc2)NC(=O)[C@H]2[C@@H](Cc3ccc(F)cc3)CCN2C(=O)CNC(=O)[C@H](CCN)NC(=O)[C@H](CCC(N)=O)NC(=O)[C@H](Cc2cncnc2)NC(=O)[C@@](C)(CC(=O)O)NC(=O)[C@H](Cc2c[nH]c3ccccc23)NC(=O)[C@H](CO)NC(=O)C(C)(C)NC1=O
As for B2, the “MRC5 IC50” value was 0.016 nM.

B3: SEQ ID NO 383 (peptide)
peptide: cyclo([TyrEtNAc][4Pal][SbOHPhe4CONH2]G[Pro(cis-4-F)][Trp(βS-Me,4-F)][Aib]SW[Aib][Ala(pyrimidin-5-yl)]Q[NMeDab]G[dPro(4R-(4-pyridylmethyl))])
SMILES: CC(=O)NCCOc1ccc(C[C@@H]2NC(=O)[C@H]3C[C@@H](Cc4ccncc4)CN3C(=O)CNC(=O)[C@H](CCN)N(C)C(=O)[C@H](CCC(N)=O)NC(=O)[C@H](Cc3cncnc3)NC(=O)C(C)(C)NC(=O)[C@H](Cc3c[nH]c4ccccc34)NC(=O)[C@H](CO)NC(=O)C(C)(C)NC(=O)[C@H]([C@@H](C)c3c[nH]c4cccc(F)c34)NC(=O)[C@@H]3C[C@H](F)CN3C(=O)CNC(=O)[C@H]([C@@H](O)c3ccc(C(N)=O)cc3)NC(=O)[C@H](Cc3ccncc3)NC2=O)cc1
With B3, the “MRC5 IC50” value amounted to 0.042 nM.

B4: SEQ ID NO 380 (peptide)
peptide: cyclo([Bip(4'-CONH2)][4Pal][Phe(4-CONH2)]G[Pro(cis-4-F)][Trp(βS-Me,4-F)][Aib]SW[d(αMeD)][Ala(pyrimidin-5-yl)]Q[Dab]G[dPro(3S-(4-F-Bn))])
SMILES: C[C@@H](c1c[nH]c2cccc(F)c12)[C@@H]1NC(=O)[C@@H]2C[C@H](F)CN2C(=O)CNC(=O)[C@H](Cc2ccc(C(N)=O)cc2)NC(=O)[C@H](Cc2ccncc2)NC(=O)[C@H](Cc2ccc(-c3ccc(C(N)=O)cc3)cc2)NC(=O)[C@H]2[C@@H](Cc3ccc(F)cc3)CCN2C(=O)CNC(=O)[C@H](CCN)NC(=O)[C@H](CCC(N)=O)NC(=O)[C@H](Cc2cncnc2)NC(=O)[C@@](C)(CC(=O)O)NC(=O)[C@H](Cc2c[nH]c3ccccc23)NC(=O)[C@H](CO)NC(=O)C(C)(C)NC1=O
On to B4, for which the “MRC5 IC50” value was 0.018 nM.

B5: SEQ ID NO 381 (peptide)
peptide: cyclo([TyrEtNAc][4Pal][Phe(4-CONH2)]G[Pro(cis-4-F)][Trp(βS-Me,4-F)][Aib]SW[Aib][alThrOEt]Q[NMeDab]G[dPro(4R-(4-pyridylmethyl))])
SMILES: CCO[C@@H](C)[C@@H]1NC(=O)C(C)(C)NC(=O)[C@H](Cc2c[nH]c3ccccc23)NC(=O)[C@H](CO)NC(=O)C(C)(C)NC(=O)[C@H]([C@@H](C)c2c[nH]c3cccc(F)c23)NC(=O)[C@@H]2C[C@H](F)CN2C(=O)CNC(=O)[C@H](Cc2ccc(C(N)=O)cc2)NC(=O)[C@H](Cc2ccncc2)NC(=O)[C@H](Cc2ccc(OCCNC(C)=O)cc2)NC(=O)[C@H]2C[C@@H](Cc3ccncc3)CN2C(=O)CNC(=O)[C@H](CCN)N(C)C(=O)[C@H](CCC(N)=O)NC1=O
As for B5, the “MRC5 IC50” value is 0.041 nM.
